# Measurements reported in article PMC12119571, “The Porphyromonas gingivalis RNA-binding protein is required for growth in high levels of zinc and persistence with host cells”.
# T1: RbpPg1 (Porphyromonas gingivalis W83) (UniProt Q7MWI3)
# T1 sequence: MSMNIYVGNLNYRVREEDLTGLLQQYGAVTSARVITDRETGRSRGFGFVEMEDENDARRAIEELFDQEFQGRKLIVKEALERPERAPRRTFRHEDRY
# T2: RbpPg1 (Porphyromonas gingivalis W83, UniProt Q7MWI3 1-97)
# T2 sequence: T1 sequence
# Tests used:
# [1] = test system: RbpPg1 (Halo) (Porphyromonas gingivalis W83); experiment: pull-down of total RNA, RNA-seq; details: EMSA: LightShift Chemiluminescent RNA EMSA kit, on ice 30 min, TBE 10% gel at 4 C (buffer in Suppl. Tables 3-5, not in the material); His pulldown: 1 h at 4 C …
# [2] = molecular target: T1, RbpPg1 (Porphyromonas gingivalis W83); experiment: pull-down of total RNA, RNA-seq; details: EMSA: LightShift Chemiluminescent RNA EMSA kit, on ice 30 min, TBE 10% gel at 4 C (buffer in Suppl. Tables 3-5, not in the material); His pulldown: 1 h at 4 C …
# [3] = molecular target: T2, RbpPg1; experiment: EMSA; shift reduced by unlabeled IRE RNA; EMSA: LightShift Chemiluminescent RNA EMSA kit, on ice 30 min, TBE 10% gel at 4 C (buffer in Suppl. Tables 3-5, not in the material); His pulldown: 1 h at 4 C; details: protein: recombinant; tags: His-tag (pET30a, NcoI/XhoI); label: 3' biotin; IRE stem loop (hairpin)
Molecule,binding signal (fold enrichment over HU-beta) [1],binding signal (fold enrichment over HU-beta) [2],binding result [3]
PG2090 zinc efflux transcript,639,71.3,
UCCUGCUUCAACAGUGCUUGGACGGAAC (structured_RNA) [IRE control RNA (LightShift kit)],,,binds
